What was measured:
human CD40 on cells [1] = target: T1, human CD40 on cells (human, UniProt P25942 21-277); assay: FACS on Jurkat cells overexpressing human CD40, PE anti-human IgG, MFI
T1 construct: whole, on cells; also called cell surface CD40; Jurkat-CD40
Protocol: To evaluate their binding affinity to cell surface CD40, chimeric anti-CD40 monospecific antibodies were tested in Jurkat cell lines that overexpressed CD40 by FACS. A total number of 1×10⁵ Jurkat-CD40 cells in each well were incubated with 10-fold serially diluted antibodies starting from 100 nM for 30 minutes at 4° C. in FACS buffer. After wash by FACS buffer, PE conjugated-anti-human IgG antibody was added to each well and incubated at 4° C. for 30 minutes. After wash, MFI of PE was evaluated by MACSQuant Analyzer 16.

human CD40 on cells [2] = target: T1, human CD40 on cells; assay: FACS on human dendritic cells, MFI

T1 sequence (P25942 21-277): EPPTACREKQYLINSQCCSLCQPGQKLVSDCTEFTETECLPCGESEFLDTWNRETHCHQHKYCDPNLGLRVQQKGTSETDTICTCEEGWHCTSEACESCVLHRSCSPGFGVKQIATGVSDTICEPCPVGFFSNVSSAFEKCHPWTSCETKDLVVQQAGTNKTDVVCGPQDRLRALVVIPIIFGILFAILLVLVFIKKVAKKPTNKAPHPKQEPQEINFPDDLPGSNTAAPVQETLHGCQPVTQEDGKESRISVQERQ

| EC50 (read off the curve) (human CD40 on cells [1]) | EC50 (read off the curve) (human CD40 on cells [2]) | Binder |
| --- | --- | --- |
| ~200 pM | – | 2p1294 chimeric monospecific antibody (antibody, V domains shown, chimeric monospecific antibody made from the alpaca VHH) VH: QVQLVESGGGLVQPGGSLRLSCAASGFSFRRYTMSWVRQAPGKGLEWVSAISDNGAITTYTESAQGRFTISRDNAKNTLYLQMNSLKPEDTAVYYCAQGGGSNYYRESWGQGTQVTVSS |
| ~200 pM | – | 42p655 chimeric monospecific antibody (antibody, V domains shown, chimeric monospecific antibody made from the alpaca VHH) VH: AVQLVESGGGLVQPGGSLRLSCAASGFAFRRYTMSWVRQAPGKGLEWVSSITDNGSITTYAESAQGRFTISRDNAKNTLYLQMNSLKPEDTAVYHCAQGGGSNYYRESWGQGTQVTVSS |
| – | ~600 pM | b16 (42p155z2)-LALA humanized anti-5T4/CD40 bispecific antibody (bispecific antibody, human IgG1, kappa, L234A L235A, 1+2 b16 format, humanized 5T4 arm; also called b16 (42p15522)-LALA) heavy 1: QVQLVQSGAEVKKPGASVKVSCKASGYAFSSSWMNWVRQAPGQGLEWMGRIYREDGHTNYNGKFKGRVTMTADKSITTAYMELSRLRSDDTAVYYCANGGAMDYWGQGTLVTVSSASTKGPSVFPLAPSSKSTSGGTAALGCLVKDYFPEPVTVSWNSGALTSGVHTFPAVLQSSGLYSLSSVVTVPSSSLGTQTYICNVNHKPSNTKVDKKVEPKSCDKTHTCPPCPAPEAAGGPSVFLFPPKPKDTLMISRTPEVTCVVVDVSHEDPEVKFNWYVDGVEVHNAKTKPREEQYNSTYRVVSVLTVLHQDWLNGKEYKCKVSNKALPAPIEKTISKAKGQPREPQVCTLPPSREEMTKNQVSLSCAVKGFYPSDIAVEWESNGQPENNYKTTPPVLDSDGSFFLVSKLTVDKSRWQQGNVFSCSVMHEALHNHYTQKSLSLSPGK light: not shown heavy 2: not shown |

From US20240209109A1 (CONCEPT TO MEDICINE BIOTECH, published 2024)
